Experimental data published in patent publication US20060045883A1, “Anti-cancer vaccines” (priority 2004, published 2006).

Target: HLA-A2.1 (HLA-A*0201) on the surface of T2 cells (human)

B1: Influenza B nucleoprotein peptide (aa 85-94; Flu), P04665 85-94 (peptide)
peptide: KLGEFYNQMM
modifications: not checked
Median Channel of Fluorescence of HLA-A2 Expression on T2: 194
